B1: gC1qR (human) (receptor)
chain: LHTDGDKAFVDFLSDEIKEERKIQKHKTLPKMSGGWELELNGTEAKLVRKVAGEKITVTFNINNSIPPTFDGEEEPSQGQKVEEQEPELTSTPNFVVEVIKNDDGKKALVLDCHYPEDEVGQEDEAESDIFSIREVSFQSTGESEWKDTNYTLNTDSLDWALYDHLMDFLADRGVDNTFADELVELSTALEHQEYITFLEDLKSFVKSQ
notes: gC1qR (receptor of the globular heads of C1q), human; the catalogue number may tell them; also called human gC1qR; source: bought: Invitrogen (#11874H08E25)
B2: idInlBCC9, internalin domain (receptor-binding domain) of InlB, isoform of clonal complex CC9 (lineage II) (domain or fragment)
chain: AKVQAETITVPTPIKQIFSDDAFAETIKDNLKKKSVTDAVTQNELNSIDQIIANNSDIKSVQGIQYLPNVTKLFLNGNKLTDIKPLANLKNLGWLFLDENKVKDLSSLKDLKKLKSLSLEHNGISDINGLVHLPQLESLYLGNNKITDITVLSRLTKLDTLSLEDNQISDIVPLAGLTKLQNLYLSKNHISDLRALAGLKNLDVLELFSQECLNKPINHQSNLVVPNTVKNTDGSLVTPEIISDDGDYEKPNVKWHLPEFTNEVSFIFYQPVTIGKAKARFHGRVTQPLKE
modifications: stained with RED-tris-NTA (on the His tag)
notes: 321 aa long; also called idInlB-His-Tag; source: E. coli BL21, purified (HisTrap FF Crude column, dialysed against PBS)

How the values were obtained:
Experiment in all cases: MST; idInlB-His-Tag stained with RED-tris-NTA kept constant at 50 nM; unlabeled receptor in twofold dilutions from 0.076 nM to 2.5 uM; PBST (PBS with 0.05% Tween-20); Monolith NT.115, LED power 80%, MST power 40%; fitted to a 1:1 binding model; mean of three independent experiments
[1] = molecular target: idInlBCC7, internalin domain (receptor-binding domain) of InlB, isoform of clonal complex CC7 (lineage II) (Listeria monocytogenes)
[2] = molecular target: idInlBCC1, internalin domain (receptor-binding domain) of InlB, isoform of clonal complex CC1 (lineage I) (Listeria monocytogenes)
[3] = molecular target: B2; conditions: both partners purified
[4] = molecular target: T1, chimeric protein HGFR/Fc (c-Met extracellular domain as part of a soluble chimera protein) (human, UniProt P08581 25-932); conditions: both partners purified
T1 construct: Hepatocyte growth factor receptor (c-Met, HGFR), human, extracellular domain; natural c-Met is cut into an alpha and a beta chain, written here as one chain; also called human c-Met; source: bought: Sigma-Aldrich (H0536)
T1 sequence (P08581 25-932, change not shown): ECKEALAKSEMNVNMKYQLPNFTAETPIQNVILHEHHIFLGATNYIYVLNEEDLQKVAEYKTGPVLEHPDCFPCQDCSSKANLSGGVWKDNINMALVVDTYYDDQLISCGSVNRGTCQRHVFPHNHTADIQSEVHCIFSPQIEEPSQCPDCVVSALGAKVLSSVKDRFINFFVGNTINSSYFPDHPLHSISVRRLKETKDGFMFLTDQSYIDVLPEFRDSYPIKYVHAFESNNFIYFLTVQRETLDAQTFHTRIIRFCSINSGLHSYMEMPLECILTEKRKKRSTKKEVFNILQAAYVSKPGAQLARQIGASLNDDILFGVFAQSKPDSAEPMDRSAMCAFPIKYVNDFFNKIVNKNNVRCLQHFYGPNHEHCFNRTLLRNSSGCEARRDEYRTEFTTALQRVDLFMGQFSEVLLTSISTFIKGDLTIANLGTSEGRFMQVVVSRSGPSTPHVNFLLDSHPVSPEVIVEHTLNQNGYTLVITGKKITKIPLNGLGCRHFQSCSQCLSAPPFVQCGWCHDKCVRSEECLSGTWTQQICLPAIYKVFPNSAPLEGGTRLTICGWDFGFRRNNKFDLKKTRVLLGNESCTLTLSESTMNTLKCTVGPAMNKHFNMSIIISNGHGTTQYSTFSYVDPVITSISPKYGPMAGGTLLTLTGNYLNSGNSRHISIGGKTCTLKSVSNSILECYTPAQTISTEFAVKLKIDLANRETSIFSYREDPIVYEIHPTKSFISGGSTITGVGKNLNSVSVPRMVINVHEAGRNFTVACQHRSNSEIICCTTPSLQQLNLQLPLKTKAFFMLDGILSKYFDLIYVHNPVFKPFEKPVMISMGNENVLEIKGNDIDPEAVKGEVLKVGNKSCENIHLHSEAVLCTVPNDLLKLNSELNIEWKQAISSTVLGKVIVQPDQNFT

Molecule	Kd [1] [nM]	Kd [2] [nM]	Kd [3] [nM]	Kd [4] [nM]
chimeric protein HGFR/Fc (c-Met extracellular domain as part of a soluble chimera protein) (from UniProt P08581 25-932) (Fc fusion)	58.7	7.4	–	–
gC1qR (human) (from UniProt Q07021 74-282) (receptor)	10.2	7.4	–	–
B1	–	–	21.5	–
B2	–	–	–	93.6

— paper PMC10139187, “Natural Isoforms of Listeria monocytogenes Virulence Factor Inlb Differ in c-Met Binding Efficiency and Differently Affect Uptake and Survival Listeria in Macrophage †” (International Journal of Molecular Sciences, 2023)
